Patent US20230242658A1 (published 2023)
Substitutions are numbered along the chain they refer to.

Experiments:
[1] = target: T1, human 4-1BB on CHO-K1 cells (human, UniProt Q07011 24-255); experiment: FACS blocking of 4-1BBL; FIG. 14F
[2] = target: T1, human 4-1BB on CHO-K1 cells; experiment: FACS
Target sequence in this assay (Q07011 24-255): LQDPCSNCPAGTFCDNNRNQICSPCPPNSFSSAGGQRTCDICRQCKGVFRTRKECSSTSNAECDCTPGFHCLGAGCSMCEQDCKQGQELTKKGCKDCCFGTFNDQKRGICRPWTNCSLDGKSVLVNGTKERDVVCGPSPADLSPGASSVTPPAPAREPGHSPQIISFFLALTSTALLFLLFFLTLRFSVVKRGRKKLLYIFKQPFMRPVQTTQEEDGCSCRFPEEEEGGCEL

[3] = target: T2, cynomolgus monkey 4-1BB on CHO-K1 cells (cynomolgus monkey); experiment: FACS; FIG. 12F
T2 chain: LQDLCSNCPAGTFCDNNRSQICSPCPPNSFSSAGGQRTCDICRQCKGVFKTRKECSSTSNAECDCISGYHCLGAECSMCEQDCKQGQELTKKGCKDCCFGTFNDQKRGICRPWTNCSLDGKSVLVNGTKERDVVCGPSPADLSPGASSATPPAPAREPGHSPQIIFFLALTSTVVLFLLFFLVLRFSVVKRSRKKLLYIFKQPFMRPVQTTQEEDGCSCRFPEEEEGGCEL

[4] = target: human PD-L1 on CHO-K1 cells (human, UniProt Q9NZQ7 19-290); experiment: FACS
human PD-L1 on CHO-K1 cells, sequence (Q9NZQ7 19-290): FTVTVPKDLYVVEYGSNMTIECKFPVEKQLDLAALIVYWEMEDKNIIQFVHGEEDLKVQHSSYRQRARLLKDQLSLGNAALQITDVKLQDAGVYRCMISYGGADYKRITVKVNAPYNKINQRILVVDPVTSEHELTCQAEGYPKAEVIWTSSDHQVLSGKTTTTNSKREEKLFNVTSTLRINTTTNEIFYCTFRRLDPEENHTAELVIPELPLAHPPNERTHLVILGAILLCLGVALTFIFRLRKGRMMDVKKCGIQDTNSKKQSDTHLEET

[5] = target: T2, cynomolgus monkey 4-1BB on CHO-K1 cells; experiment: FACS
[6] = target: T2, cynomolgus monkey 4-1BB on CHO-K1 cells; experiment: FACS; FIG. 12H
[7] = target: T1, human 4-1BB on CHO-K1 cells; experiment: FACS blocking of 4-1BBL; FIG. 14G
[8] = target: T1, human 4-1BB on CHO-K1 cells; experiment: FACS; FIG. 11I
[9] = target: T1, human 4-1BB on CHO-K1 cells; experiment: FACS; FIG. 11J
[10] = target: T2, cynomolgus monkey 4-1BB on CHO-K1 cells; experiment: FACS; FIG. 12I
[11] = target: T1, human 4-1BB on CHO-K1 cells; experiment: FACS blocking of 4-1BBL; FIG. 14H
[12] = target: T2, cynomolgus monkey 4-1BB on CHO-K1 cells; experiment: FACS
[13] = target: T1, human 4-1BB on CHO-K1 cells; experiment: FACS; remark: listed apart in the source
[14] = target: T2, cynomolgus monkey 4-1BB on CHO-K1 cells; experiment: FACS; FIG. 12K
[15] = target: T1, human 4-1BB on CHO-K1 cells; experiment: FACS blocking of 4-1BBL
Target sequence in this assay (Q07011 24-255): as the sequence (Q07011 24-255) above

[16] = target: T1, human 4-1BB on CHO-K1 cells; experiment: FACS; FIG. 11L
Target sequence in this assay (Q07011 24-255): as above

[17] = target: T2, cynomolgus monkey 4-1BB on CHO-K1 cells; experiment: FACS; FIG. 12G
[18] = target: T1, human 4-1BB on CHO-K1 cells; experiment: FACS; FIG. 11H

B1: PR001837 (antibody, V domains shown)
VH: EVQLLESGGGLVQPGGSLRLSCEASGFTFSSYAMSWVRQAPEKGLEWVSSISGSGGSTFYADSVKGRFTISRDNSKNTLYLQMNSLRAEDTAVYYCAKEGTTETDDYHYNMDVWGQGTTVTVSS
An IC50 [1] of 1.96 nM, an EC50 [2] of 0.386 nM and an EC50 [3] of 1.63 nM were found for B1 in this work.

B2: PR004270 (bispecific antibody)
chain 1: EVQLVESGGGLVQPGGSLRLSCAASGFTFSSYWMSWVRQAPGKGLEWVANIKQEGSEKYYVDSVKGRFTISRDNAKNSLYLQMNSLRAEDTAVYYCARDRAVAGAFDIWGQGTMVTVSSASTKGPSVFPLAPSSKSTSGGTAALGCLVKDYFPEPVTVSWNSGALTSGVHTFPAVLQSSGLYSLSSVVTVPSSSLGTQTYICNVNHKPSNTKVDKKVEPKSC
chain 2: not shown
An EC50 [4] of 0.963 nM and an EC50 [5] of 1.55 nM were found for B2 in this work.

B3: PR007288 (antibody, V domains shown)
VH: EVQLVESGGGLVKPGGSLRLSCAASGFTFSDYYMSWFRQAPGKGLEWVSYISGSGSIIDYADSVKGRFTISRDNAKNSLYLQMNSLRAEDTAVYYCSREREAVAGTLDFDYWGQGTLVTVSS
An EC50 [6] of 0.903 nM, an IC50 [7] of 1.63 nM and an EC50 [8] of 1.21 nM were found for B3 in this work.

B4: PR007286 (antibody, V domains shown)
VH: EVQLVESGGGLVKPGGSLRLSCAASGFTFSDYYMSWIRQAPGKGLEWVSYISSSGSTIYYADSVKGRFTISRDNAKNSLYLQMNSLRAEDTAVYYCARVKPVAGTWDWFDPWGQGTPVTVSS
An EC50 [6] of 4.61 nM, an IC50 [7] of 7.54 nM and an EC50 [8] of 4.37 nM were found for B4 in this work.

B5: PR007290 (antibody, V domains shown)
VH: B3 VH with L11V, K13Q, G16R, G53S, S56T, I57T, S97A, A102E, L117P
An EC50 [9] of 2.02 nM, an EC50 [10] of 2.5 nM and an IC50 [11] of 5.11 nM were found for B5 in this work.

B6: PR003549 (bispecific antibody)
light: DIQMTQSPSTLSASVGDRVTVTCRASQSIYIWLAWYQQKPGKAPNLLIYKASSLETGVPSRFSGSGSGTEFTLTISSLQPDDFATYYCQQYYGSSRTFGQGTKVEIKRTVAAPSVFIFPPSDEQLKSGTASVVCLLNNFYPREAKVQWKVDNALQSGNSQESVTEQDSKDSTYSLSSTLTLSKADYEKHKVYACEVTHQGLSSPVTKSFNRGEC
heavy: EVQLVESGGGLVQPGGSLRLSCAASGFTFSSYWMSWVRQAPGKGLEWVANIKQEGSEKYYVDSVKGRFTISRDNAKNSLYLQMNSLRAEDTAVYYCARDRAVAGAFDIWGQGTMVTVSSASTKGPSVFPLAPSSKSTSGGTAALGCLVKDYFPEPVTVSWNSGALTSGVHTFPAVLQSSGLYSLSSVVTVPSSSLGTQTYICNVNHKPSNTKVDKKVEPKSCDKTHTCPPCPAPEAAGGPSVFLFPPKPKDTLMISRTPEVTCVVVDVSHEDPEVKFNWYVDGVEVHNAKTKPREEQYNSTYRVVSVLTVLHQDWLNGKEYKCKVSNKALGAPIEKTISKAKGQPREPQVYTLPPSREEMTKNQVSLTCLVKGFYPSDIAVEWESNGQPENNYKTTPPVLDSDGSFFLYSKLTVDKSRWQQGNVFSCSVMHEALHNHYTQKSLSLSPGEPKSSDKTHTPPPPPRTEVQLLESGGGLVQLGGSLRLSCAASGFTFSRYAMTWVRQAPEKGLEWVSSISGSGDDTYYGDSVKGRFTISRDNSQNTVYLQMNSLRAEDTAVYFCAKEKAGTTGDYYYNVDVWGQGTTVTVSS
An EC50 [12] of 1.86 nM, an EC50 [4] of 1.56 nM and an EC50 [13] of 1.9 nM were found for B6 in this work.

B7: PR007295 (antibody, V domains shown)
VH: EVQLVESGGGLVKPGGSLRLSCAASGFTFSDYYMSWIRQAPGKGLEWVSYISNNGSTIYYADSVKGRFTISRDNAKNSLYLQMNSLRAEDTAVYYCARVRPGGSGNYWDWFDPWGQGTMVTVSS
An EC50 [14] of 11.1 nM, an IC50 [15] of 16.1 nM and an EC50 [16] of 18.9 nM were found for B7 in this work.

B8: PR003550 (bispecific antibody)
light: B6 light
heavy: EVQLVESGGGLVQPGGSLRLSCAASGFTFSSYWMSWVRQAPGKGLEWVANIKQEGSEKYYVDSVKGRFTISRDNAKNSLYLQMNSLRAEDTAVYYCARDRAVAGAFDIWGQGTMVTVSSASTKGPSVFPLAPSSKSTSGGTAALGCLVKDYFPEPVTVSWNSGALTSGVHTFPAVLQSSGLYSLSSVVTVPSSSLGTQTYICNVNHKPSNTKVDKKVEPKSCDKTHTCPPCPAPEAAGGPSVFLFPPKPKDTLMISRTPEVTCVVVDVSHEDPEVKFNWYVDGVEVHNAKTKPREEQYNSTYRVVSVLTVLHQDWLNGKEYKCKVSNKALGAPIEKTISKAKGQPREPQVYTLPPSREEMTKNQVSLTCLVKGFYPSDIAVEWESNGQPENNYKTTPPVLDSDGSFFLYSKLTVDKSRWQQGNVFSCSVMHEALHNHYTQKSLSLSPGEPKSSDKTHTPPPPPRTEVQLVESGGGVVQPGGSLRLSCAASGFTFSNYAMTWVRQAPEKGLEWVSSISGSGVSTYYADSVKGRFTISRDNSKNTLYLQMTRLTAEDTAVYFCAKEGSSETDDHYYNVDVWGQGTTVTVSS
An EC50 [12] of 1.32 nM and an EC50 [4] of 1.11 nM were found for B8 in this work.

B9: PR004469 (antibody, V domains shown)
VH: EVQLLESGGGLVQPGGSLRLSCAASGFTFSNYAMSWFRQPPETGLKWVSSIDASGGDTYYADSVKGRFTISRDNSKNTLYLQMNSLRAEDTAVYYCAKEGSHGTDDSHYDVDVWGQGTTVTVSS
An EC50 [17] of 0.568 nM and an EC50 [18] of 1.29 nM were found for B9 in this work.

B10: PR001838 (antibody, V domains shown)
VH: B9 VH with A53G
An IC50 [1] of 1.61 nM, an EC50 [2] of 0.248 nM and an EC50 [17] of 0.329 nM were found for B10 in this work. It also gave an EC50 [3] of 1.09 nM and an EC50 [18] of 0.851 nM.

B11: PR001840 (antibody, V domains shown)
VH: EVQLVESGGGLVQPGGSLRLSCAASGFTFSSYWMHWVRQAPGKGLVWVSRINSDGSSTSYADSVQGRFTISRDNAKNTLYLQMNSLRAEDTAVYYCVRKGSSSYYHYSIEDDWGQGTLVTVSS
An IC50 [1] of 2.58 nM, an EC50 [2] of 0.37 nM and an EC50 [3] of 1.25 nM were found for B11 in this work.

B12: PR004268 (bispecific antibody)
light: B6 light
heavy: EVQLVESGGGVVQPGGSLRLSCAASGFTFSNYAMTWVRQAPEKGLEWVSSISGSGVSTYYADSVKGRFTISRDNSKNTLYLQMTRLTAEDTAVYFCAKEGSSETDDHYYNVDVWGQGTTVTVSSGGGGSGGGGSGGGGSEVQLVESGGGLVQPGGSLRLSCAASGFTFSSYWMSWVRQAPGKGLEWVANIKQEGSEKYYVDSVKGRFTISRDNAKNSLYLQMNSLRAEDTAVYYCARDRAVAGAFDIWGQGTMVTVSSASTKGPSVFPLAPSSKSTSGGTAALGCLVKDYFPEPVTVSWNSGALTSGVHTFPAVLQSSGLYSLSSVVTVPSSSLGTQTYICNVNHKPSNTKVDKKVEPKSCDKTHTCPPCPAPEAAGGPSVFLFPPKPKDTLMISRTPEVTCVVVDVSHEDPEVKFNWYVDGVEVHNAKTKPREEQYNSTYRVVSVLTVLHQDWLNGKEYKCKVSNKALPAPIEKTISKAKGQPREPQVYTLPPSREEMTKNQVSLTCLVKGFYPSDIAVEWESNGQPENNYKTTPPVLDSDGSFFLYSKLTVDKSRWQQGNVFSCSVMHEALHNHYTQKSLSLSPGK
An EC50 [4] of 1.2 nM and an EC50 [5] of 0.621 nM were found for B12 in this work.

B13: PR007289 (antibody, V domains shown)
VH: B3 VH with G53S, I57T, I58Q, S97A, A102P, Y111N, L117P
An EC50 [9] of 2.49 nM, an EC50 [10] of 4.11 nM and an IC50 [11] of 11 nM were found for B13 in this work.

B14: PR007297 (antibody, V domains shown)
VH: B7 VH with N53R, N54S, M119L
An EC50 [14] of 8.84 nM, an IC50 [15] of 11.3 nM and an EC50 [16] of 11.7 nM were found for B14 in this work.

B15: PR007287 (antibody, V domains shown)
VH: B3 VH with V5E, G53S, I58T, S63A, T69N, S97A, Y111N
An EC50 [6] of 1.17 nM, an IC50 [7] of 2.55 nM and an EC50 [8] of 1.55 nM were found for B15 in this work.

B16: PR007296 (antibody, V domains shown)
VH: B3 VH with A23V, S56T, I57T, S97A, Y111N, L117P
An EC50 [14] of 3.28 nM, an IC50 [15] of 4.19 nM and an EC50 [16] of 3.81 nM were found for B16 in this work.

B17: PR007291 (antibody, V domains shown)
VH: B7 VH with A23V, A24T, S35N, L45Q, N53G, M119P
An EC50 [9] of 2.47 nM, an EC50 [10] of 1.95 nM and an IC50 [11] of 3.29 nM were found for B17 in this work.
